This is an account of results in paper PMC10130748 (Life Science Alliance, 2023).

Positions of bridges follow the written chain, without caps; N, C: chain ends. No end group written: not given here.

The target in the test is T1, CD62P (P-selectin) lectin domain (residues 1–117), wild type.
T1 construct: CD62P (P-selectin) C-type lectin domain, residues 1-117; cDNA chemically synthesized, BamHI/EcoRI site of pET28a; also called CD62P lectin domain; C-type lectin domain of CD62P; not shown: His tag from pET28a ([residues removed]), N-terminal, kept
T1 chain: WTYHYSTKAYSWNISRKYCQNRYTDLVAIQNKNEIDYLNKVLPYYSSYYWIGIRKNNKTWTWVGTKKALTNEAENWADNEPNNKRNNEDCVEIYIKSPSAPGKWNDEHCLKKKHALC
The test can be described thus: ELISA; wells coated with the CD62P lectin domain (20 μg/ml), blocked with BSA; site 2 peptides fused to GST (100 μg/ml); bound GST detected with HRP-conjugated anti-GST. Conditions: both partners purified. (An ELISA detects its analyte on a solid surface through an enzyme-linked reagent.)

B1: cyclic site 2 peptide of integrin β1 (residues 268–295, C281S) fused to GST (peptide)
chain: CKLGGIVLPNDGQSHLENNMYTMSHYYC
modifications: disulfide 1-28 (inferred); also: fused to GST
notes: also called cyclic site 2 peptide from β1; site 2 peptide from β1
As to B1, the binding result is “binds”.

B2: cyclic site 2 peptide of integrin β3 (residues 260–288, C273S) fused to GST (peptide)
chain: CRLAGIVQPNDGQSHVGSDNHYSASTTMC
modifications: disulfide 1-29 (inferred); also: fused to GST
notes: also called cyclic site 2 peptide from β3; site 2 peptide of β3
B2: the binding result is “binds”.
